Our source for the Kd, koff and kon values is PMC9367177.

Read-outs that look alike come from different tables or passages of the source.

For assay [1], the target named is SARS-CoV-2 RBD (Wuhan-1) (SARS-CoV-2, Wuhan-1) (UniProt P0DTC2). Briefly: SPR.
For assay [2] the target is unchanged. In words: SPR. This is another data set of the same source. For orientation: SPR reads the build-up and loss of mass on a sensor chip optically.

In assay [1], CC12.1 (antibody) gave a Kd of 5.92 nM, a koff of 0.00412 s⁻¹ and a kon of 695000 M⁻¹ s⁻¹. Besides, the kon in assay [2] amounted to 696000 M⁻¹ s⁻¹.

Usually Kd stands for the equilibrium constant for the complex coming apart. Read a low Kd as tighter binding. Usually koff stands for a measure of how fast the partners let go of each other. Higher therefore signals a short-lived complex. As a reminder, the kon is the second-order rate constant of association. A higher kon goes with fast association.
